In US20200003757A1, “METHOD OF IDENTIFYING AGENTS THAT AFFECT MATURATION, SURVIVAL AND MYELINATION” (KADIMASTEM, LTD., priority 2011, published 2020):

What was measured:
hES-OPC = test: Differentiation assay; dose response of Noggin on hES-OPC (O4/DAPI staining, Cellomics neuronal profiling); format: cell-based, human
Method: 5000 hES-OPC were seeded in each well of Matrigel and PDL-coated 96 well black clear plates (CI-3603, Corning). The medium used for the experiment comprised DMEM/F12 with 0.5% (v/v) N2 supplement (Invitrogen), 1% (v/v) B27 supplement, Glutamax and 100 U/ml penicillin and 100 μg/ml streptomycin (Biological Industries, IL). The cells were deprived from growth factors 24 hours prior to seeding. 12 hours following seeding, increasing doses of Noggin (Preprotech, Israel) were supplemented to the media for the ten days of differentiation. The Noggin doses ranged between 15 nM to 0.015 nM (450 ng/ml to 0.45 ng/ml) with 3.16 fold dilutions (square root of 10) in the presence of 0.1% DMSO and 50 μg/ml Vitamin C. Samples without Noggin in the presence of 0.1% DMSO and 50 μg/ml Vitamin C served as negative control. The media was changed every other day by replenishing ⅔ of the media. On day ten, the wells were fixed using 4% paraformaldehyde (PFA) for further O4 and Dapi staining.
Cells were fixed using 4% paraformaldehyde (PFA), washed with PBS and kept at 4° C. before staining. Non-specific staining was blocked with normal goat serum (5% w/v in PBS) for 30 minutes at RT. Primary mouse monoclonal (mMc) and rabbit polyclonal antibodies, diluted in 1% goat serum, were as described in Table 2, herein below. All staining was followed by the nuclear fluorescent dye DAPI (Sigma, 0.05 μg/ml). All coverslips were mounted in Mowiol (Calbiochem, La Jolla, Calif.). An Olympus IX-70 FLA microscope with a DVC-1310C digital camera (DVC, Austin, Tex.) was used and images processed with Photoshop and analyzed with Image-Pro-Plus software (Media Cybernetics, Silver Spring, Md.) to measure Integrated Optic Density (IOD) of color-specific pixels and MBP positive fiber length. […]
BMP signaling negatively regulates oligodendrocyte lineage development, and it has been shown that Noggin, an inhibitor of BMP signaling, promotes the differentiation of ES-derived oligodendrocytes. As a proof of concept that effects of drugs on oligodendrocyte differentiation can be quantified, the inventors searched for the optimal concentration of Noggin to be used to promote differentiation. […] Nuclear DNA staining with DAPI was used to quantify the cell number per field, and oligodendrocytes were characterized by staining with O4. […] Similarly, O4 positive processes (green) were counted and measured only if attached to O4 cell body. Places where one process becomes two were counted as branch point (FIGS. 3D-E, yellow circles). The numbers of processes, their lengths, and the number of branch points per O4 positive cell body were counted. […] Thus, it may be concluded that the present assay is capable of quantifying the effect of Noggin. […]

human oligodendrocytes = test: Human oligodendrocytes and hESC-OPC survival assay (dead cell labeling and O4 labeling); format: cell-based; conditions: 14 days in culture
Method: In order to evaluate the survival of human oligodendrocytes or its progenitor cells in culture, a specific dead cell labeling (Live/dead viability/cytotoxicity kit for mammalian cells, Invitrogen, molecular probes, L3223) was used. A culture of differentiated oligodendrocytes and oligodendrocytes progenitor culture sorted by O4+ or CD140+ MACS sorting respectively were obtained. The effect of recombinant human IFN-Y (R&D systems, Biotest, 285-IF-100) was tested on oligodendrocytes survival. Following 14 days in culture the cells were labeled with dead cell labeling (Ethidium heterodimer 1-red labeling) and O4 labeling (green). […] Such an assay gives complementary results on the effect of tested compound on oligodendrocytes survival.

B1: Noggin: an inhibitor of BMP signaling (Preprotech, Israel) (protein, UniProt Q13253 28-232, looked up)
Noggin: QHYLHIRPAPSDNLPLVDLIEHPDPIFDPKEKDLNETLLRSLLGGHYDPGFMATSPPEDRPGGGGGAAGGAEDLAELDQLLRQRPSGAMPSEIKGLEFSEGLAQGKKQRLSKKLRRKLQMWLWSQTFCPVLYAWNDLGSRFWPRYVKVGSCFSKRSCSVPEGMVCKPSKSVHLTVLRWRCQRRGGQRCGWIPIQYPIISECKCSC
- morphology of O4 positive OLs versus absence of Noggin (hES-OPC; Noggin added after growth factor removal, FIGS. 3A-C): stimulates the emergence of OLs with longer and multiple processes
- number of O4 positive cell per well (hES-OPC; ten days differentiation with noggin treatment): not changed
- process numbers per cell, total process length per well, number of branch points per cell (hES-OPC; ten days differentiation, O4 positive cells, serial dilutions of Noggin): correlated with Noggin concentration
- EC50 (hES-OPC; ten days without growth factors, O4 staining, triplicate, FIG. 3F, read-out: EC50 (50% of the maximal effect), curve generated by integrating process numbers per cell, total process length per well and number of branch points per cell): 0.157 nM

B2: IFN-Y: recombinant human IFN-Y (R&D systems, Biotest, 285-IF-100) (protein, UniProt P01579 24-161, looked up)
Interferon gamma: QDPYVKEAENLKKYFNAGHSDVADNGTLFLGILKNWKEESDRKIMQSQIVSFYFKLFKNFKDDQSIQKSVETIKEDMNVKFFNSNKKKRDDFEKLTNYSVTDLNVQRKAIHELIQVMAELSPAAKTGKRKRSQMLFRG
- percentage of dead cells (human oligodendrocytes; Ethidium heterodimer 1 labeling, FIG. 12E): increased the percentage of dead cells
- number of differentiated oligodendrocytes (O4+ cells) (human oligodendrocytes; O4 labeling, FIG. 12F): decreased the number of differentiated oligodendrocytes
